Reference: paper PMC7691336
Values joined by “and” are separate entries in the source; they are usually repeats but may differ in a detail not shown here. Identical values can stand only once.

How the values were obtained:
[1] = target: cardiac ryanodine receptor (RyR2) V3599K, knock-in mouse heart (mouse (endogenous in cardiac homogenates)) (UniProt E9Q401); test: cross-linking; CaM-SANPAH at rising concentrations (to 1024 nM; also 3000) mixed with mouse cardiac homogenates (1 mg/mL) in 150 mmol/L KCl, 10 umol/L CaCl2, 20 mmol/L MES pH 6.8; 10 min binding, UV cross-linking, anti-CaM blot of the 550 kDa band; binding as ratio to the maximum; one Kd for each heart; hearts of sham-operated mice
[2] = target: cardiac ryanodine receptor (RyR2), wild type, mouse heart (mouse (endogenous in cardiac homogenates)) (UniProt E9Q401); test: as above
[3] = target: cardiac ryanodine receptor (RyR2) V3599K, knock-in mouse heart (mouse (endogenous in cardiac homogenates)) (UniProt E9Q401); test: cross-linking; CaM-SANPAH at rising concentrations (to 1024 nM; also 3000) mixed with mouse cardiac homogenates (1 mg/mL) in 150 mmol/L KCl, 10 umol/L CaCl2, 20 mmol/L MES pH 6.8; 10 min binding, UV cross-linking, anti-CaM blot of the 550 kDa band; binding as ratio to the maximum; one Kd for each heart; hearts 2 weeks after transverse aortic constriction (TAC 2W)
[4] = target: cardiac ryanodine receptor (RyR2), wild type, mouse heart (mouse (endogenous in cardiac homogenates)) (UniProt E9Q401); test: as above

Kd [1]: 47.4 nM and 51.6 nM (2×) and 74.2 nM | Kd [2]: 61.4 nM and 66.9 nM and 54.7 nM (2×) | Kd [3]: 55.9 nM and 44.2 nM and 82.9 nM | Kd [4]: 118 nM and 151 nM and 139 nM
Substance: CaM-SANPAH conjugate (recombinant calmodulin) (from UniProt P0DP23 1-149) (natural protein)
